{
  "source": "paper PMC5995542",
  "key": {"[1]": {"biological_target": "E. coli 70S ribosome termination complex labelled with Cy3 at protein L11 (PreHC, PostHC* or PostHC) (E. coli) (UniProt P0A7J7)", "assay": "FRET or BRET; smFRET (TIRF), RF1(GAQ)-Cy5 (10 nM) on immobilised PreHC labelled at L11-Cy3, with excess unlabelled RF3 (1 µM) and GTP (1 mM); 22°C"}, "[2]": {"biological_target": "E. coli 70S ribosome termination complex labelled with Cy3 at protein L11 (PreHC, PostHC* or PostHC) (E. coli) (UniProt P0A7J7)", "assay": "FRET or BRET; smFRET (TIRF), RF1(GAQ)-Cy5 (10 nM) on immobilised PostHC* (puromycin) labelled at L11-Cy3, with excess unlabelled RF3 (1 µM) and GTP (1 mM); 22°C"}, "[3]": {"biological_target": "E. coli 70S ribosome termination complex labelled with Cy3 at protein L11 (PreHC, PostHC* or PostHC) (E. coli) (UniProt P0A7J7)", "assay": "FRET or BRET; smFRET (TIRF) between factor-Cy5 (10 nM, in solution) and L11-Cy3 on PreHC or PostHC (peptide released by puromycin or by the factor) immobilised by mRNA-biotin:neutravidin; no RF3; imaging buffer pH 7.5, 15 mM MgCl2, 22°C; koff from residence times, limited by photobleaching (0.07–0.19 s^-1)"}, "[4]": {"biological_target": "PostHC, post-hydrolysis termination complex: E. coli 70S ribosome labelled with Cy3 at protein L11, deacylated tRNAfMet in the P site and the stop codon UAA in the A site (E. coli) (UniProt P0A7J7)", "assay": "FRET or BRET; single-molecule FRET by TIRF, residence time: RF3-Cy5 (10 nM) with GDPNP (1 mM) on L11-Cy3 PostHC immobilised through mRNA-biotin:neutravidin; with saturating unlabelled RF1 (1 µM)"}, "[5]": {"biological_target": "PostHC, post-hydrolysis termination complex: E. coli 70S ribosome labelled with Cy3 at protein L11, deacylated tRNAfMet in the P site and the stop codon UAA in the A site (E. coli) (UniProt P0A7J7)", "assay": "FRET or BRET; single-molecule FRET by TIRF, residence time: RF2-Cy5 (10 nM) on L11-Cy3 PostHC (peptide released by RF2) immobilised through mRNA-biotin:neutravidin; no RF3; imaging buffer pH 7.5, 15 mM MgCl2, 22°C"}, "[6]": {"biological_target": "E. coli 70S ribosome termination complex labelled with Cy3 at protein L11 (PreHC, PostHC* or PostHC) (E. coli) (UniProt P0A7J7)", "assay": "FRET or BRET; smFRET (TIRF), RF1-Cy5 (10 nM) on immobilised L11-Cy3 PreHC converted in situ to PostHC by RF1, with excess unlabelled RF3 (1 µM) and GTP (1 mM); 22°C"}},
  "data": [
    {"substance": "RF1(GAQ)-Cy5 (catalytically impaired RF1(G234A), Cy5-labelled) (from UniProt P0A7I0 1-360) (natural protein)", "values": [
      {"measurement": "koff", "setting": "[1]", "value": "< 0.3", "unit": "s⁻¹"},
      {"measurement": "koff", "setting": "[2]", "value": 1.3, "unit": "s⁻¹"},
      {"measurement": "koff of the small fraction (8%) of complexes that release RF1(GAQ) slowly", "setting": "[2]", "value": 0.12, "unit": "s⁻¹"},
      {"measurement": "koff", "setting": "[3]", "value": "< 0.2", "unit": "s⁻¹"}
    ]},
    {"substance": "RF3-Cy5, single-cysteine release factor RF3(L233C) labelled with Cy5 (from UniProt P0A7I4 1-529) (natural protein)", "values": [
      {"measurement": "koff", "setting": "[4]", "value": 2.5, "unit": "s⁻¹"}
    ]},
    {"substance": "RF2-Cy5, single-cysteine release factor RF2(C273) labelled with Cy5 (from UniProt P07012 1-365) (natural protein)", "values": [
      {"measurement": "koff", "setting": "[5]", "value": 0.84, "unit": "s⁻¹"}
    ]},
    {"substance": "RF1-Cy5 (release factor RF1, single-cysteine variant RF1(S167C) labelled with Cy5) (from UniProt P0A7I0 1-360) (natural protein)", "values": [
      {"measurement": "koff", "setting": "[6]", "value": 1.2, "unit": "s⁻¹"},
      {"measurement": "koff", "setting": "[3]", "value": "< 0.2", "unit": "s⁻¹"}
    ]}
  ]
}
